Laboratory results taken from PMC3985891 (Biochemistry, 2014).

Target: the molecule itself
Experiment: SEC-MALS

B1: MVP-s (codon-optimized synthetic MVP, M. jannaschii voltage-gated protein), N-terminal His tag, from pET15b (natural protein, Methanococcus jannaschii, UniProt Q57603 1-209, looked up)
chain: MNLKDRRLKKIMEVLSLIFTFEIVASFILSTYNPPYQDLLIKLDYISIMFFTFEFIYNFYYVEDKAKFFKDIYNIVDAIVVIAFLLYSLQVFYSKAFLGLRVINLLRILVLLRIIKLRKLEENQALINFLTLLTICFIASCLIWIVESGVNPAINNFFDAFYFTTISITTVGYGDITPKTDAGKLIIIFSVLFFISGLITSLQKALKGD
  stoichiometry N: 4
